Results on two molecules are retold here after patent US20130336885A1 (Genentech, published 2013).

What is called Kd is the constant that tells how readily two partners part at equilibrium.

Assay [1] deals with T1, human LgR5 ECD (amino acids 22-557 fused to His-Fc expressed in a baculovirus system, or amino acids 22-558 … (human, UniProt O75473 22-557)).
T1 construct: not shown: C-terminal His-tagged Fc
T1 sequence: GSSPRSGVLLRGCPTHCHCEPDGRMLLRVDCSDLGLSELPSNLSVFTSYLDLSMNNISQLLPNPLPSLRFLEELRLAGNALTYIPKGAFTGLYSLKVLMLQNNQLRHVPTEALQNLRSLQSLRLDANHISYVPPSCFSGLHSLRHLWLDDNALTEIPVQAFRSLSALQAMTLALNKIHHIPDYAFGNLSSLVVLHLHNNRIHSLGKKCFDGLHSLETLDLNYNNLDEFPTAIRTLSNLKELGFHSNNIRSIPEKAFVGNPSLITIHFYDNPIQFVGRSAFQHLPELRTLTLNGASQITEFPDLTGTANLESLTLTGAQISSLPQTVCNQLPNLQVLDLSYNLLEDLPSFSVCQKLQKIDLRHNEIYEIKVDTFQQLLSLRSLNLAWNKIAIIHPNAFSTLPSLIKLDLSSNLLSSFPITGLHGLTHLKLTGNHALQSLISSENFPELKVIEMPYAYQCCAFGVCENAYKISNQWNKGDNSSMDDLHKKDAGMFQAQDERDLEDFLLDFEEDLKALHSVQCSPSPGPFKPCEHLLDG
In words: SPR (BIAcore-3000), antibody captured by anti-human Fc, LgR5 ECD-Fc injected. On the technique in general: In SPR one partner is held on a chip, and binding of the other changes the refractive index at the surface.

Assay [2] addresses T2, gD epitope-tagged LgR5 424-907 (amino acids 424-907 of SEQ ID NO: 67) on transiently transfected 293 cells (human, UniProt O75473 424-907).
T2 sequence: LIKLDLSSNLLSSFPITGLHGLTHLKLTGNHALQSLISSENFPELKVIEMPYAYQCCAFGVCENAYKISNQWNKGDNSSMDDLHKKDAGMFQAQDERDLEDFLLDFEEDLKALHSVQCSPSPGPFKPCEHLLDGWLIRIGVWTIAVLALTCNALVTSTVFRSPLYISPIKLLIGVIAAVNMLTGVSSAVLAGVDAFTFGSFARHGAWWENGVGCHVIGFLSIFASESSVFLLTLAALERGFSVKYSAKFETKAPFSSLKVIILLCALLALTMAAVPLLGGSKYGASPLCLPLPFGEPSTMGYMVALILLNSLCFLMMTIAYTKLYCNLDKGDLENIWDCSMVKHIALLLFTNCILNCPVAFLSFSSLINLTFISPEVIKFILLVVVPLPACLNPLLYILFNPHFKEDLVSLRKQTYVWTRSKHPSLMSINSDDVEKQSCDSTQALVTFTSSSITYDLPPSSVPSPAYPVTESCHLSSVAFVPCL
In words: FACS on transiently transfected 293 cells.

The target of assay [3] is T3, gD epitope-tagged LgR5 22-123 (amino acids 22-123 of SEQ ID NO: 67) with a C-terminal GPI anchor on … (human, UniProt O75473 22-123, C-terminal GPI anchor).
T3 sequence: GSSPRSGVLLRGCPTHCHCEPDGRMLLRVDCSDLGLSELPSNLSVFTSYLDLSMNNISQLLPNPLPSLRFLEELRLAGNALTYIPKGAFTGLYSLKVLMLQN
In words: FACS on transiently transfected 293 cells.

The target in assay [4] is T4, gD epitope-tagged LgR5 22-323 (amino acids 22-323 of SEQ ID NO: 67) with a C-terminal GPI anchor on … (human, UniProt O75473 22-323, C-terminal GPI anchor).
T4 sequence: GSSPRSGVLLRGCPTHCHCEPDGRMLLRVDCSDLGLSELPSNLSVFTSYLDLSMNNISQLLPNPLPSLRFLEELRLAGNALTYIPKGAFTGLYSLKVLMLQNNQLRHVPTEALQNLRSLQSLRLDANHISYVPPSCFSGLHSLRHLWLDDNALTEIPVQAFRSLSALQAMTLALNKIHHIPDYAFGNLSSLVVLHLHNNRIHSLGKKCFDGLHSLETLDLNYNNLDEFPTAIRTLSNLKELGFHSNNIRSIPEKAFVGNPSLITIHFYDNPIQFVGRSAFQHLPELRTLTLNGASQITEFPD
In words: FACS on transiently transfected 293 cells.

Assay [5] deals with T5, gD epitope-tagged mouse LgR5 expressed on stably transfected 293 cells (mouse, UniProt Q9Z1P4 22-907).
T5 construct: also called gD-tagged mouse LgR5
T5 sequence: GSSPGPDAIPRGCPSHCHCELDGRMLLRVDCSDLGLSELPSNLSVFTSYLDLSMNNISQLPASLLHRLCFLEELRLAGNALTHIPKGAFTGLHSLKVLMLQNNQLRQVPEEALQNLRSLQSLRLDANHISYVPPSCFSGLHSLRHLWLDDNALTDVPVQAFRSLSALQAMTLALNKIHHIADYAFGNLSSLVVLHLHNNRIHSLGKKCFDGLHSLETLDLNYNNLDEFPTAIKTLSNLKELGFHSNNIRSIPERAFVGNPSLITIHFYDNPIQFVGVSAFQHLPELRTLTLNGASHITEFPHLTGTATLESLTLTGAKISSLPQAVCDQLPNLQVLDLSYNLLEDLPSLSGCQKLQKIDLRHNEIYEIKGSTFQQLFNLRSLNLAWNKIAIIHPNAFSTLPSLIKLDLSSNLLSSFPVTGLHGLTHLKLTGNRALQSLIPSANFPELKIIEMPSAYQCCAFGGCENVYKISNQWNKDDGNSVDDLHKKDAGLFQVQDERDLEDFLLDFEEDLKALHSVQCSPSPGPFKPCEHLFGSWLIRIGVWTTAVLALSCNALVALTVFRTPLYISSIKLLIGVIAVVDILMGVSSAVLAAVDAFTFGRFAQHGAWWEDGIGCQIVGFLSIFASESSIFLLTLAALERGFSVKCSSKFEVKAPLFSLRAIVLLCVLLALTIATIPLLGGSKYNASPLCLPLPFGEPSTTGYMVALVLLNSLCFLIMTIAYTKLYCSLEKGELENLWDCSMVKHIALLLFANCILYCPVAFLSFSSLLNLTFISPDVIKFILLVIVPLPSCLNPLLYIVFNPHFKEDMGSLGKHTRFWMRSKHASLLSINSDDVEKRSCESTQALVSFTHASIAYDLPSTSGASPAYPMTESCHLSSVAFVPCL
The assay can be described thus: FACS on 293 cells stably transfected with gD epitope-tagged LgR5, 10 ug/ml antibody, R-Phycoerythrin goat anti-human detection. As to the method:
Monoclonal antibodies were tested to determine if they cross-react with LgR5 from species other than human. […] Residues that are identical among all four species are indicated by asterisks (*). […] YW353 antibody binds human and cynomolgus monkey LgR5, but not rat or mouse LgR5. Ch8E11 and hu8E11.v2 antibodies bind all four species of LgR5, although binding to rat LgR5 is not as strong as binding to human, cynomolgus monkey, or mouse LgR5. 2H6 antibody binds to human and mouse LgR5, and was not tested for binding to cynomolgus monkey or rat LgR5.

B1: monoclonal antibody 2H6 (antibody, V domains shown)
VH: EVQLQQSGPELVKPGTSMKISCKASGYSFTGYTMNWVKQSHKNGLEWIGLINCYNGGTNYNQKFKGKATLTVDKSSSTAFMELLSLTSEDSAVYYCARGGSTMITPRFAYWGQGTLVTVSS
VL: DIVMTQSPSSLTVTAGEKVTMSCKSSQSLLNSGNQKNYLTWFQQKPGQPPKLLIYWASTRESGVPDRFTGSGSGTDFTLTISNVQAEDLAVYYCQNDYSFPFTFGQGTKVEIKR
notes: The variable domains are the same in both forms; also called m2H6; mu2H6
In assay [1], B1 displayed a Kd of 208 nM. Also, the binding result is on record as “no binding (tested: 10 µg/ml)” in assay [2], “no binding (tested: 10 µg/ml)” in assay [3], “no binding (tested: 10 µg/ml)” in assay [4] and “binds” in assay [5].

B2: monoclonal antibody 3G12 (antibody, V domains shown)
VH: QVQLQQPGAEMVKPGASVKLSCKASVDTFNSYWMHWVKQRPGQGLEWIGEINPSNGRTNYIEKFKNRATVTVDKSSSTAFMQLSSLTSEDSAVYYCATGWYFDVWGAGTTVTVSS
VL: DVVMTQTPLSLPVSLGDQASISCRSSQSLVHSNGNTYLQWYLQKPGQSPKLLIYKVSNRFSGVPDRFSGSGSGTDFTLKISRVEAEDLGIYFCSQSTHFPYTFGGGTKLEIKR
notes: The variable domains are the same in both forms; also called m3G12; mu3G12
As to B2, binding in assay [1] was characterised by a dissociation constant (Kd) of 72 nM. The binding result in assay [2] is “no binding (tested: 10 µg/ml)”; in assay [3] it was “no binding (tested: 10 µg/ml)”; in assay [4], “no binding (tested: 10 µg/ml)”; in assay [5], “binds”.
